Assays:
[1] = target: UKNP5.2.1 E2E1-I53-50A (hepatitis C virus, strain UKNP5.2.1); assay: non-reducing SDS-PAGE; purified protein on a non-reducing gel; one band larger than 250 kDa, disulfide-bonded trimer
[2] = target: AMS0232 E2E1-I53-50A (hepatitis C virus, isolate AMS0232 (genotype 1a)); assay: SEC; Strep-Tactin-purified E2E1-I53-50A alone on Superdex 200 Increase 10/300 GL or Superose 6 Increase 10/300 GL; TBS/5% glycerol; elutes as a trimer
[3] = target: AMS0232 E2E1-I53-50A (hepatitis C virus, isolate AMS0232 (genotype 1a)); assay: non-reducing SDS-PAGE; purified protein on a non-reducing gel; one band larger than 250 kDa, disulfide-bonded trimer
[4] = target: UKNP2.2.1 E2E1-I53-50A (hepatitis C virus, strain UKNP2.2.1 / UKNP2.1.1); assay: as above
[5] = target: UKNP6.1.2 E2E1-I53-50A (hepatitis C virus, strain UKNP6.1.2); assay: as above
[6] = target: AMS2b E2E1-I53-50A (hepatitis C virus, strain AMS2b); assay: as above
[7] = target: UKNP4.1.1 E2E1-I53-50A (hepatitis C virus, strain UKNP4.1.1); assay: as above
[8] = target: H77 E2E1-I53-50A (hepatitis C virus, strain H77); assay: as above

UKNP5.2.1 E2E1-I53-50A (complex) gave a stoichiometry N [1] of 3.

Substance AMS0232 E2E1-I53-50A (complex) has a stoichiometry N [2] of 3 and a stoichiometry N [3] of 3.

For UKNP2.2.1 E2E1-I53-50A, the stoichiometry N [4] was 3.

For UKNP6.1.2 E2E1-I53-50A (complex), the stoichiometry N [5] was 3.

With AMS2b E2E1-I53-50A (complex) the stoichiometry N [6] was 3.

UKNP4.1.1 E2E1-I53-50A (complex) was tested, and the stoichiometry N [7] was 3.

In the case of H77 E2E1-I53-50A (complex), the stoichiometry N [8] is reported as 3.
